According to paper PMC2193258:

Columns and labels:
[1] = target: glycocalicin (the soluble extracellular domain of platelet glycoprotein Ibα) (human) (UniProt P07359); experiment: cell adhesion assay, competition
[2] = target: Mac-1 (αMβ2, CD11b/CD18) on THP-1 monocytic cells (human (endogenous in THP-1)), P11215; experiment: cell adhesion assay, competition; settings: remark: other sources report otherwise

Chain of UniProt P07359 (P07359 17-531): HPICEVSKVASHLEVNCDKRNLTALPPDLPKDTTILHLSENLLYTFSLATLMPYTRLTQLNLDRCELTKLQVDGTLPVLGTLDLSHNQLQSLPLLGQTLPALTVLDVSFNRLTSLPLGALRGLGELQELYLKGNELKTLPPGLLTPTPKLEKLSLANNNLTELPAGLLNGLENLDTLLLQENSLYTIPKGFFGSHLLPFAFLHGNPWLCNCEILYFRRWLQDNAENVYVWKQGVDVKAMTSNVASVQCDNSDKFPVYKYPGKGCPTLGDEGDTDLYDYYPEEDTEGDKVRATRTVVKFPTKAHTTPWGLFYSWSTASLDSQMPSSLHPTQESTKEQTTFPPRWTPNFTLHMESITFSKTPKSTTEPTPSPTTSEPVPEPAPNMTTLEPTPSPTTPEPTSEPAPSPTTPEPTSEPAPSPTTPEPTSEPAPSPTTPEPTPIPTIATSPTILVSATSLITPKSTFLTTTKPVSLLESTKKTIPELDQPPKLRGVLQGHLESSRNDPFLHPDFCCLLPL

39/34-kD dispase fragment of vWf encompassing the A1 domain (Leu480–Gly718) (domain or fragment)
percent inhibition of THP-1 adhesion to GP Ibα [1]: 83%

B1: human fibrinogen, P02671-2 20-644; P02675 31-491; P02679-2 27-437 (complex)
chain 1: ADSGEGDFLAEGGGVRGPRVVERHQSACKDSDWPFCSDEDWNYKCPSGCRMKGLIDEVNQDFTNRINKLKNSLFEYQKNNKDSHSLTTNIMEILRGDFSSANNRDNTYNRVSEDLRSRIEVLKRKVIEKVQHIQLLQKNVRAQLVDMKRLEVDIDIKIRSCRGSCSRALAREVDLKDYEDQQKQLEQVIAKDLLPSRDRQHLPLIKMKPVPDLVPGNFKSQLQKVPPEWKALTDMPQMRMELERPGGNEITRGGSTSYGTGSETESPRNPSSAGSWNSGSSGPGSTGNRNPGSSGTGGTATWKPGSSGPGSTGSWNSGSSGTGSTGNQNPGSPRPGSTGTWNPGSSERGSAGHWTSESSVSGSTGQWHSESGSFRPDSPGSGNARPNNPDWGTFEEVSGNVSPGTRREYHTEKLVTSKGDKELRTGKEKVTSGSTTTTRRSCSKTVTKTVIGPDGHKEVTKEVVTSEDGSDCPEAMDLGTLSGIGTLDGFRHRHPDEAAFFDTASTGKTFPGFFSPMLGEFVSETESRGSESGIFTNTKESSSHHPGIAEFPSRGKSSSYSKQFTSSTSYNRGDSTFESKSYKMADEAGSEADHEGTHSTKRGHAKSRPVRGIHTSPLGKPSLSP
chain 2: QGVNDNEEGFFSARGHRPLDKKREEAPSLRPAPPPISGGGYRARPAKAAATQKKVERKAPDAGGCLHADPDLGVLCPTGCQLQEALLQQERPIRNSVDELNNNVEAVSQTSSSSFQYMYLLKDLWQKRQKQVKDNENVVNEYSSELEKHQLYIDETVNSNIPTNLRVLRSILENLRSKIQKLESDVSAQMEYCRTPCTVSCNIPVVSGKECEEIIRKGGETSEMYLIQPDSSVKPYRVYCDMNTENGGWTVIQNRQDGSVDFGRKWDPYKQGFGNVATNTDGKNYCGLPGEYWLGNDKISQLTRMGPTELLIEMEDWKGDKVKAHYGGFTVQNEANKYQISVNKYRGTAGNALMDGASQLMGENRTMTIHNGMFFSTYDRDNDGWLTSDPRKQCSKEDGGGWWYNRCHAANPNGRYYWGGQYTWDMAKHGTDDGVVWMNWKGSWYSMRKMSMKIRPFFPQQ
chain 3: YVATRDNCCILDERFGSYCPTTCGIADFLSTYQTKVDKDLQSLEDILHQVENKTSEVKQLIKAIQLTYNPDESSKPNMIDAATLKSRKMLEEIMKYEASILTHDSSIRYLQEIYNSNNQKIVNLKEKVAQLEAQCQEPCKDTVQIHDITGKDCQDIANKGAKQSGLYFIKPLKANQQFLVYCEIDGSGNGWTVFQKRLDGSVDFKKNWIQYKEGFGHLSPTGTTEFWLGNEKIHLISTQSAIPYALRVELEDWNGRTSTADYAMFKVGPEADKYRLTYAYFAGGDAGDAFDGFDFGDDPSDKFFTSHNGMQFSTWDNDNDKFEGNCAEQDGSGWWMNKCHAGHLNGVYYQGGTYSKASTPNGYDNGIIWATWKTRWYSMKKTTMKIIPFNRLTIGEGQQHHLGGAKQAGDV
percent inhibition of THP-1 adhesion to GP Ibα [2]: 99%
